Values of other authors as cited in article PMC2888830.

Molecular target: integrin αIIbβ3 (Homo sapiens) (UniProt P08514)

Substance: disagregin (from UniProt P36235)
- Kd: 0.04 µM
